Test results taken from the supplement of paper PMC9233669.
This sample holds only a part of the variants without activity.

Experiments:
biotinyl-Phe-oxazolone = assay: self-aminoacylation, catalytic enhancement (BFO) (fold over background); higher = more active; k-Seq, kA / k0A0; sequences stand for … in GGGAAUGGAUCCACAUCUACGAAUUC…UUCACUGCAGACUUGACGAAGCUG
Procedure, shortened: (§1)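 The uncatalyzed rate is the low-activity peak of a bimodal Gaussian fit, and catalytic enhancement is median kA divided by it. The kA values came from pseudo-first-order fits, with 1000 bootstraps, of per-sequence fraction reacted measured by streptavidin capture, triplicate qPCR and Illumina sequencing. Mutagenized RNA pools with a 21-nt variable region (0.43 μM) were reacted with each biotinyl-aminoacyl-oxazolone at 2–1250 μM in 50 μL HEPES/NaCl/KCl/MgCl2/CaCl2 buffer with 5% acetonitrile, pH 6.9–7.0, for 90 minutes at room temperature.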

biotinyl-Trp-oxazolone = assay: self-aminoacylation, catalytic enhancement (BWO) (fold over background); higher = more active; k-Seq, kA / k0A0; sequences stand for … in GGGAAUGGAUCCACAUCUACGAAUUC…UUCACUGCAGACUUGACGAAGCUG
Procedure, shortened: as §1

biotinyl-Ile-oxazolone = assay: self-aminoacylation, catalytic enhancement (BIO) (fold over background); higher = more active; k-Seq, kA / k0A0; sequences stand for … in GGGAAUGGAUCCACAUCUACGAAUUC…UUCACUGCAGACUUGACGAAGCUG
Procedure, shortened: as §1

biotinyl-Val-oxazolone = assay: self-aminoacylation, catalytic enhancement (BVO) (fold over background); higher = more active; k-Seq, kA / k0A0; sequences stand for … in GGGAAUGGAUCCACAUCUACGAAUUC…UUCACUGCAGACUUGACGAAGCUG
Procedure, shortened: as §1

biotinyl-Leu-oxazolone = assay: self-aminoacylation, catalytic enhancement (BLO) (fold over background); higher = more active; k-Seq, kA / k0A0; sequences stand for … in GGGAAUGGAUCCACAUCUACGAAUUC…UUCACUGCAGACUUGACGAAGCUG
Procedure, shortened: as §1

biotinyl-Met-oxazolone = assay: self-aminoacylation, catalytic enhancement (BMO) (fold over background); higher = more active; k-Seq, kA / k0A0; sequences stand for … in GGGAAUGGAUCCACAUCUACGAAUUC…UUCACUGCAGACUUGACGAAGCUG
Procedure, shortened: as §1

| Sequence | self-aminoacylation (biotinyl-Phe-oxazolone) | self-aminoacylation (biotinyl-Trp-oxazolone) | self-aminoacylation (biotinyl-Ile-oxazolone) | self-aminoacylation (biotinyl-Val-oxazolone) | self-aminoacylation (biotinyl-Leu-oxazolone) | self-aminoacylation (biotinyl-Met-oxazolone) |
| --- | --- | --- | --- | --- | --- | --- |
| AUUACCCUGGUCAGGGAGUGA [Fam2.1 aminoacylation ribozyme variant] | 18.9 | 2.41 | 2.57 | 2.54 | 3.27 | 3.36 |
| CAACUUCAAACAAUCGGACUG [Fam1A.1 aminoacylation ribozyme variant] | 19.2 | 10.6 | 1.26 | 0.945 | 1.41 | 0.952 |
| CGACUUCAAACAAUGGGUCUG [Fam1A.1 aminoacylation ribozyme variant] | 0.777 | 0.968 | 1.2 | 1.09 | 0.941 | 1.2 |
| AUUACCCUGGUCAUGGAGUCA [Fam2.1 aminoacylation ribozyme variant] | 0.746 | 0.594 | 0.907 | 1.01 | 0.838 | 0.798 |
| ACACACUUCAAGCAAUCUGUC [Fam1B.1 aminoacylation ribozyme variant] | 1.39 | 0.683 | 0.759 | 1.02 | 0.58 | 0.567 |
| GUUACCCUGGUCAUCGAGUUA [Fam2.1 aminoacylation ribozyme variant] | 23.1 | 10 | 4.48 | 5.21 | 11.1 | 12 |
| CCACACUUCACGCAAUCGAUC [Fam1B.1 aminoacylation ribozyme variant] | 0.676 | 0.618 | 0.568 | 0.606 | 0.514 | 0.55 |
| CUCCUUCAACCAAUCGGUCUG [Fam1A.1 aminoacylation ribozyme variant] | 29.5 | 19.8 | 1.11 | 1.16 | 1.33 | 1.1 |
| CCACAAUUCAGGCAAUCGGUC [Fam1B.1 aminoacylation ribozyme variant] | 1.29 | 0.94 | 1.47 | 1.42 | 1.46 | 1.37 |
| AUUACCGUGGUCAUCGUGUGA [Fam2.1 aminoacylation ribozyme variant] | 5.4 | 2.03 | 1.3 | 1.25 | 2.49 | 1.64 |
| UCACACUUCAAUCAAUCGGUC [Fam1B.1 aminoacylation ribozyme variant] | 35.5 | 21.3 | 1.11 | 1.08 | 1.49 | 1.12 |
| CCACACGUGAAGCAAUCGGUC [Fam1B.1 aminoacylation ribozyme variant] | 0.826 | 1.39 | 0.9 | 1.2 | 0.721 | 1.32 |
| CAACACUUCAAGCAAUCGGUA [Fam1B.1 aminoacylation ribozyme variant] | 1.44 | 1.23 | 1.25 | 1.14 | 1.13 | 1.15 |
| AUUACACUGGUCGUCGAGUGA [Fam2.1 aminoacylation ribozyme variant] | 2.53 | 0.958 | 1.25 | 1.38 | 1.44 | 1.14 |
| AACUUUGUUAAUAGUCGCAAG [Fam3.1 aminoacylation ribozyme variant] | 3.96 | 2.76 | 2.29 | 2.06 | 2.47 | 2.26 |
| AUUAUCCUGGUCAUCGCGUGA [Fam2.1 aminoacylation ribozyme variant] | 146 | 19.3 | 6.96 | 8.29 | 19.9 | 17.9 |
| AAUUUUGCUAAUAGUCGCAAC [Fam3.1 aminoacylation ribozyme variant] | 2.23 | 1.95 | 1.64 | 1.8 | 1.44 | 1.41 |
| CCACACUUCAAGAAAGCGGUC [Fam1B.1 aminoacylation ribozyme variant] | 0.498 | 0.407 | 0.839 | 0.716 | 0.784 | 0.66 |
| AUUUCGCUGGUCAUCGAGUGA [Fam2.1 aminoacylation ribozyme variant] | 28.5 | 5.72 | 2.84 | 3.16 | 5.38 | 4.64 |
| AUUACCCUGGUCAUCGAAUUA [Fam2.1 aminoacylation ribozyme variant] | 0.751 | 0.504 | 1.26 | 1.18 | 0.955 | 1.5 |
| AAGUAUGCUAAUAGGCGCAAG [Fam3.1 aminoacylation ribozyme variant] | 0.856 | 1.58 | 0.992 | 1.18 | 1.08 | 0.748 |
| AUUACUCUGGUCAUUGAGUGA [Fam2.1 aminoacylation ribozyme variant] | 32.7 | 9.3 | 4.15 | 3.61 | 8.45 | 7.88 |
| CCACACUUCAAGCACUCGGUG [Fam1B.1 aminoacylation ribozyme variant] | 22.4 | 3.63 | 2.92 | 3.16 | 4.22 | 3.52 |
| CUACACUUCAAGCAAUCGGUG [Fam1B.1 aminoacylation ribozyme variant] | 5.79 | 4.25 | 2.71 | 2.61 | 4.94 | 3.49 |
| AAGUUUGCUAACAGUCGCAAU [Fam3.1 aminoacylation ribozyme variant] | 0.994 | 1.58 | 1.13 | 0.959 | 0.968 | 1.22 |
| AAGUUUGCUUAUACUCGCAAG [Fam3.1 aminoacylation ribozyme variant] | 0.761 | 0.554 | 0.779 | 0.814 | 0.66 | 0.863 |
